In US20240092889A1 (Chugai, published 2024):
Values belong to the binder of their own block, whether it stands above or below them.

Assays:
[1] = target: T1, recombinant human C1r2s2 tetramer (human, UniProt P09871 16-688; P00736 18-705); assay: SPR (BIACORE T200), 37 C, Ab captured via anti-human Ig kappa, human C1r2s2 as analyte, pH 7.4; pH 7.4, 37 C
T1 construct: C1s and C1r co-expressed in HEK293/FreeStyle 293-F and purified from conditioned medium
T1 chain 1: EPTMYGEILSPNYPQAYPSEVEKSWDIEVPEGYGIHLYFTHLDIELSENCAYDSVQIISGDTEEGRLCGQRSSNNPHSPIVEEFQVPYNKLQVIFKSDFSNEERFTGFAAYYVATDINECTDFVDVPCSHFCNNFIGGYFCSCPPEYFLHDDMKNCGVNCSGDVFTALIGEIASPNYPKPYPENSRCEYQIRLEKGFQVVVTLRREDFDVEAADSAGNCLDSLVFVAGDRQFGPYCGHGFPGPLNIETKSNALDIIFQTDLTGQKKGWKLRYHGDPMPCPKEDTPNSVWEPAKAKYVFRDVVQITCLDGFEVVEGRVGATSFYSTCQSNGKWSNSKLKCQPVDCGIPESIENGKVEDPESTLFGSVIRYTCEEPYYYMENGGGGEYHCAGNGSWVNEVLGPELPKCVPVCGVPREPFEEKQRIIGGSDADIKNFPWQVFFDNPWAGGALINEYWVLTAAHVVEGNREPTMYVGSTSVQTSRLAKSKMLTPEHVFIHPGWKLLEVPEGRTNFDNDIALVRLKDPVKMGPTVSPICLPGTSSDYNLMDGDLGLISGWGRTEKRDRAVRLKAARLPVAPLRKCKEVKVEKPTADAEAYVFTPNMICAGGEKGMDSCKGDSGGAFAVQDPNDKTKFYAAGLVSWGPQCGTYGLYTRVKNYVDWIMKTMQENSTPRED
T1 chain 2: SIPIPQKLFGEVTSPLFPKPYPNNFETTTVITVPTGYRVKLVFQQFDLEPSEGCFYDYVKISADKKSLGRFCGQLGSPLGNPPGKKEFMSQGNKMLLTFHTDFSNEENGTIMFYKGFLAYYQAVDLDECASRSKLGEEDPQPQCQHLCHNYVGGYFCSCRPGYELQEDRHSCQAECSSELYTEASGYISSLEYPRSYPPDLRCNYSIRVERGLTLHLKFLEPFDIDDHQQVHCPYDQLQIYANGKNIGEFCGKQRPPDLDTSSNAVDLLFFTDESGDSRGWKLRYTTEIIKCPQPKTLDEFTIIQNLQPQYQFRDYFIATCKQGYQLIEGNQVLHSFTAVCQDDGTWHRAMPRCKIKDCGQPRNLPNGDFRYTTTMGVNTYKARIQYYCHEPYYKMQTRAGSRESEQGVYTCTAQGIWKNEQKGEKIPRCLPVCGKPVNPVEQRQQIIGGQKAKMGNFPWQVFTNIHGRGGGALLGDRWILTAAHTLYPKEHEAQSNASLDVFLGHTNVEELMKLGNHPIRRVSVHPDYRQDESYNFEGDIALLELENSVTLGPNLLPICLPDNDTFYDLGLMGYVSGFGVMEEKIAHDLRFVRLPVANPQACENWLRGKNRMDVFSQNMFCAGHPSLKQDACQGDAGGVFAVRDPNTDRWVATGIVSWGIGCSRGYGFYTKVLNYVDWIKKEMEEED
Description: (§1) KD (dissociation constant) value of each samples at pH 7.4 and pH 5.8 are determined at 37 degrees C. using BIACORE® T200 instrument (GE Healthcare). Purified Mouse Anti-Human Ig kappa Light Chain (GE Healthcare) can be immobilized onto all flow cells of a CMS sensor chip using an amine coupling kit (GE Healthcare). 20 mM ACES, 150 mM NaCl, 1.2 mM CaCl2, 1 mg/mL BSA (IgG-free), 1 mg/mL CMD, 0.05% Tween® 20, 0.005% NaN3, pH 7.4 or pH 5.8 buffer were used as running buffer. Each antibody can be captured onto the sensor surface by Anti-Human Ig kappa Light chain. Antibody capture levels are aimed at 50 resonance unit (RU). […] Sensor surface is regenerated each cycle with, e.g., Glycine pH 2.0 (GE Healthcare). KD values were obtained using BIACORE® T200 Evaluation software, version 2.0 (GE Healthcare).

[2] = target: T1, recombinant human C1r2s2 tetramer; assay: SPR (BIACORE T200), 37 C, ratio of KD at pH 5.8 to KD at pH 7.4
Description: as §1

[3] = target: T1, recombinant human C1r2s2 tetramer; assay: SPR (BIACORE T200), 37 C, Ab captured via anti-human Ig kappa, human C1r2s2 as analyte, pH 5.8; pH 5.8 (acidic buffer), 37 C; antibody engineered for pH-dependent binding
Description: as §1

[4] = target: T1, recombinant human C1r2s2 tetramer; assay: SPR (BIACORE T200), 37 C, Ab captured via anti-human Ig kappa, human C1r2s2 as analyte, pH 7.4; pH 7.4, 37 C; kinetic KD, C1r2s2 up to 100-400 nM
Description: as §1

[5] = target: T1, recombinant human C1r2s2 tetramer; assay: SPR (BIACORE T200), IPN009VH2Vk3-SG1148 immobilised on the chip, human C1r2s2 injected for capture, pH 7.4, 37 C
Excerpt: Recombinant human C1r2s2 tetramer was first captured onto the sensor surface by the anti-C1r2s2 antibody. The capture levels were aimed at 200 resonance unit (RU). […] The sensor surface was regenerated each cycle with 3 M MgCl2. Sensorgrams were obtained using BIACORE® T200 Evaluation software, version 2.0 (GE Healthcare). […] For comparison of these sensorgrams, binging response of C1r2s2 was normalized as 100 RU. […] For comparison of these sensorgrams, baseline (before injecting antibodies) was adjusted to 0 RU.

- Kd [1]: 7.66 nM
- KD (pH 5.8)/KD (pH 7.4) [2]: 278
- Kd [3]: 2130 nM
B1: COS0637pHv3-TT91R (antibody, V domains shown)
VH: QVQLVESGGGVVQPGRSLRLSCAASGFTFSAYAMNWIRQPPGKGLEWIGLIYGSGHEFYASWAEERVTISVDTSKNQFSLKLSSVTAADTAVYYCARGRSKNYVSGFHLWGQGTLVTVSS
VL: DIQMTQSPSSLSASVGDRVTITCQASQILHDKKNLAWYQQKPGQPPKLLIYQASQLESGVPSRFSGSGSGTDFTLTISSLQPEDFATYYCHGEFSYESADLNQFGQGTKVEIKR

- Kd [4]: 6.43 nM
B2: COS0637pHv5-TT91R (antibody, V domains shown)
VH: QVQLVESGGGVVQPGRSLRLSCAASGFSFSAYAMNWIRQPPGKGLEWIGLIYGSGHEFYASWAEERVTISVDTSKNQFSLKLSSVTAADTAVYYCARGRSKNYVSGFHLWGQGTLVTVSS
VL: DIQMTQSPSSLSASVGDRVTITCQASGILHDKKNLAWYQQKPGQPPKLLIYGASQLESGVPSRFSGSGSGTDFTLTISSLQPEDFATYYCHGEFSYEEADLNTFGQGTKVEIKR

- binding result [5]: binds
B3: IPN009VH2VK3-SG1148 (antibody, human IgG1, kappa, V domains shown)
VH: EVMLVESGGGLVKPGGSLRLSCAASGFTFSNYAMSWVRQAPGKGLEWVATISSGGSHTYYLDSVKGRFTISRDNSKDTLYLQMNSLRAEDTALYYCARLFTGYAMDYWGQGTLVTVSS
VL: QIVLTQSPATLSLSPGERATLSCTASSSVSSSYLHWYQQKPGKAPKLWIYSTSNLASGVPSRFSGSGSGTDYTLTISSLQPEDFATYYCHQYYRLPPITFGQGTKLEIKR
notes: also called anti-human C1r2s2 antibody
